These results are taken from patent publication US20160136234A1.

Assay in all cases: cell-based or functional assay
Assay [1] concerns the target IRR (h) (human) (UniProt P14616).
Assay [2] concerns the target T1, ULK3 (h) (human) (UniProt Q6PHR2).
T1 sequence (looked up): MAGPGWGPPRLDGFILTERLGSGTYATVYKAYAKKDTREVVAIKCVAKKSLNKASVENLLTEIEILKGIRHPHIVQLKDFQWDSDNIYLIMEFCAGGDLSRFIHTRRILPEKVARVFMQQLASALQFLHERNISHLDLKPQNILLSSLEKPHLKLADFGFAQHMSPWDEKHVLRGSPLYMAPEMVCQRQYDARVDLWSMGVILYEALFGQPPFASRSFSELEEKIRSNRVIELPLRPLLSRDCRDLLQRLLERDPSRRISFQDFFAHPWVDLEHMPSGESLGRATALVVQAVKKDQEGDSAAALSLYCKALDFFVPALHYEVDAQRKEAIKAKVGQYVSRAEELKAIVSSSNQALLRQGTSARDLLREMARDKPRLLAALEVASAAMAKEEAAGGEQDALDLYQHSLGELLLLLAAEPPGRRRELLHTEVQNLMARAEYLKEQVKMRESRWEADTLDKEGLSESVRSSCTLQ

Assay [3] concerns the target CDK9/cyclin T1 (h) (human) (UniProt P50750).
Assay [4] concerns the target Rsk4 (h) (human) (UniProt Q9UK32).
Assay [5] has as its target LOK (h) (human) (UniProt O94804).
Assay [6] has as its target EphB2 (h) (human) (UniProt P29323).
For assay [7], the target named is MSK1 (h) (human) (UniProt O75582).
Assay [8] has as its target MELK (h) (human) (UniProt Q14680).
Assay [9] has as its target CDK2/cyclinA (h) (human) (UniProt P24941).
The target in assay [10] is PAK3 (h) (human) (UniProt O75914).
Assay [11] concerns the target T2, EphA5 (h) (human) (UniProt P54756).
T2 sequence (looked up): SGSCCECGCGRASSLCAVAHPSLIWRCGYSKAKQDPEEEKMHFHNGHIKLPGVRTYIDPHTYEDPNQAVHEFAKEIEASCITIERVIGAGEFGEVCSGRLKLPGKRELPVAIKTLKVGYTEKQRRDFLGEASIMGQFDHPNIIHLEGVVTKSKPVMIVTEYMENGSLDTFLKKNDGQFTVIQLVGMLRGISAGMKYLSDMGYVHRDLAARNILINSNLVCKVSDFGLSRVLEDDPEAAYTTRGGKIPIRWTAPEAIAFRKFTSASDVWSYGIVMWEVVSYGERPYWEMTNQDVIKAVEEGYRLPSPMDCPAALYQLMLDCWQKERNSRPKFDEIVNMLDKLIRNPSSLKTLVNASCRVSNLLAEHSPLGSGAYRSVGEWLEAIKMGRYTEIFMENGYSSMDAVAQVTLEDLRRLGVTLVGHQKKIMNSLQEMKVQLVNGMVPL

Assay [12] has as its target T3, Ret (V804L) (h) (human) (UniProt P07949).
T3 sequence (looked up): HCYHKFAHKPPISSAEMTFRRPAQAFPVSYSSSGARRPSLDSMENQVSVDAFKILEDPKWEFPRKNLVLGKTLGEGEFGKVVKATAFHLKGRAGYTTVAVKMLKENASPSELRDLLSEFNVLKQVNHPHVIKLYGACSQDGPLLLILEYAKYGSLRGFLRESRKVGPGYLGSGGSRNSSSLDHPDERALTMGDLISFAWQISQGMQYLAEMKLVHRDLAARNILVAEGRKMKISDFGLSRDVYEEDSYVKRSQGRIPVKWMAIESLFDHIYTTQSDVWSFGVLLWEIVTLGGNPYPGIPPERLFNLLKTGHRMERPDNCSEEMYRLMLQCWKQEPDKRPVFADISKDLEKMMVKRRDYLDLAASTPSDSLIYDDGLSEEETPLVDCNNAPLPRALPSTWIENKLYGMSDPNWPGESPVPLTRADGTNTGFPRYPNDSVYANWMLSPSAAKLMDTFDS

The target in assay [13] is T4, IRAK4 (h) (human) (UniProt Q9NWZ3).
T4 sequence (looked up): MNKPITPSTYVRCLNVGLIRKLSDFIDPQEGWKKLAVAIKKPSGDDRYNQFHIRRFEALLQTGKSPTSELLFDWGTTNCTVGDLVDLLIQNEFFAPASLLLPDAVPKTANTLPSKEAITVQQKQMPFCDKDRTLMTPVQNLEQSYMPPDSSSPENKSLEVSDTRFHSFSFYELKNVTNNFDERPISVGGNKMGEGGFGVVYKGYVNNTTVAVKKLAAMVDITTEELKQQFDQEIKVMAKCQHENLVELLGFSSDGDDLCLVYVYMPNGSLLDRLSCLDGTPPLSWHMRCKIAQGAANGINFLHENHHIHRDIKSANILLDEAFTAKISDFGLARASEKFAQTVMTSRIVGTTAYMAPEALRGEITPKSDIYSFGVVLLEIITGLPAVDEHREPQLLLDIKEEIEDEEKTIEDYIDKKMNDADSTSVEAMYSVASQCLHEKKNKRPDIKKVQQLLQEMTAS

Assay [14] deals with T5, DRAK1 (h) (human) (UniProt Q9UEE5).
T5 sequence (looked up): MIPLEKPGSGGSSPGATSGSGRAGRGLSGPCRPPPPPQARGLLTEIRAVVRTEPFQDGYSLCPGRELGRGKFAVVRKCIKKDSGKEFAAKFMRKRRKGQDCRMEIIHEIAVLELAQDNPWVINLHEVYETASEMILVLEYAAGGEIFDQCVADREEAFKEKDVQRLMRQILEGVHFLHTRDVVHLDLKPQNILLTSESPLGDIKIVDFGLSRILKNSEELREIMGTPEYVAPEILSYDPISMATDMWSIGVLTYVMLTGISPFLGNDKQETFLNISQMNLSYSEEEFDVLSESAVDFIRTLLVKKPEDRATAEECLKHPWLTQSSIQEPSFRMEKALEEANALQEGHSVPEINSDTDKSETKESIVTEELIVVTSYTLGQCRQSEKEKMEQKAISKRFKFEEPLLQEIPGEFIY

IRR (h) (human), sequence (P14616 944-1297 limits assumed): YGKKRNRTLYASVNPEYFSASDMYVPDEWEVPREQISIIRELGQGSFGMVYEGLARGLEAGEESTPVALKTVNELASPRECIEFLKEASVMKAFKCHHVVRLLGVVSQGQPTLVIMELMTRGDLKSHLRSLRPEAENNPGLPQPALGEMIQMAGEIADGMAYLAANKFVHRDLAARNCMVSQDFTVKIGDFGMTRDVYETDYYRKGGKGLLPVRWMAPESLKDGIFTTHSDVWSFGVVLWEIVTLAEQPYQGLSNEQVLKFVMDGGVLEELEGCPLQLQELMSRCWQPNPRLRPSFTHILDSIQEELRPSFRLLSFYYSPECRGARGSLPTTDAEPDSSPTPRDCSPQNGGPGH
Rsk4 (h) (human), sequence (Q9UK32 whole entry): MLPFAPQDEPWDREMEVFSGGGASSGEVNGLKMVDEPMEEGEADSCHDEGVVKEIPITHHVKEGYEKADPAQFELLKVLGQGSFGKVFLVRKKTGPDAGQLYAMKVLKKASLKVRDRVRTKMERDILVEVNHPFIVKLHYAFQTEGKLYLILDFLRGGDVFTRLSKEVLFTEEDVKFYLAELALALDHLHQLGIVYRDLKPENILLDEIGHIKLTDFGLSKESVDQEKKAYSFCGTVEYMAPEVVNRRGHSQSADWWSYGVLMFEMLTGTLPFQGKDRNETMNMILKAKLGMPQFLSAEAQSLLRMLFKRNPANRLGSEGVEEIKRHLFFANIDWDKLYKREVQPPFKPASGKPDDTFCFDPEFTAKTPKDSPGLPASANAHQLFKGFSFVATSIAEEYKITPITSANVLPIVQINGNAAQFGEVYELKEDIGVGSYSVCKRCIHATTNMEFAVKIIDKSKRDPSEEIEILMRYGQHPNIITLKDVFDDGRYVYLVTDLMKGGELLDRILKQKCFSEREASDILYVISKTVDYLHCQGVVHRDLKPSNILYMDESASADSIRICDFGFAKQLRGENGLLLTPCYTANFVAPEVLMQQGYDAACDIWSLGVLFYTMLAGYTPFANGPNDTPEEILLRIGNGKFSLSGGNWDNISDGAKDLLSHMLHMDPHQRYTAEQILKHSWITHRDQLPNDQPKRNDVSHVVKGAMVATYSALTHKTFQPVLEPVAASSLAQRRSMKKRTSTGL
EphB2 (h) (human), sequence (P29323 565-986 limits assumed): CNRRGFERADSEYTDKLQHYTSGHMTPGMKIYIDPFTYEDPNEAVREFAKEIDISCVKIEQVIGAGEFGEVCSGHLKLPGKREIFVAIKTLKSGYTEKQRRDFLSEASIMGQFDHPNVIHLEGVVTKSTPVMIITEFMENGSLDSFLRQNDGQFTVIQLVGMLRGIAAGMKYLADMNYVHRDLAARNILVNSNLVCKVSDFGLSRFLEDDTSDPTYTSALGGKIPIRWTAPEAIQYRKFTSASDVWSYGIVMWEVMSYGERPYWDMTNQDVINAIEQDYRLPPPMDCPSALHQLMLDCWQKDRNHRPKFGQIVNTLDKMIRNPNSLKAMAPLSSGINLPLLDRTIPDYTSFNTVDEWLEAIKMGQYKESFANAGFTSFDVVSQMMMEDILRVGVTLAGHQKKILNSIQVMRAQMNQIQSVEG

On to MMI-0300 (peptide), for which the % activity at 100 µM amounted to 8% in [1]; 167% in [2]; 91% in assay [3]; 90% in assay [4]; 37% in assay [5]; 18% in [6]. In addition, the % activity at 100 µM in assay [7] came out at 32%; in assay [8] it was 16%; in [9], 86%; in assay [10], 140%; in assay [11], 18%; in assay [12], 79%. In addition, the % activity at 100 µM amounted to 59% in assay [13] and 14% in [14].
